The results in this text go back to publication PMC3003327.

Test [1] concerns the target actin filaments (F-actin) of Acanthamoeba castellani cytoplasmic actin (Acanthamoeba castellani). Briefly: single-molecule TIRF microscopy.
Test [2] has the same target. Briefly: single-filament TIRF elongation rate against VASP concentration.

Regarding “Cy3-KCK-hVASP^1-380aa (C7S, C64S, C334A) (from UniProt P50552 1-380) (natural protein)”, in test [1], the dwell time at the growing barbed end with 1 µM actin stood at 1.45 s, the dwell time τ1 (single exponential fit without the static molecules) is 0.44 s, the dwell time τ1 on filament regions with p(ADP-Pi) < 0.5 worked out at 1 s and the dwell time τ1 on filament regions with p(ADP-Pi) > 0.5 was 0.93 s. In test [1], this substance gave a dwell time τ1 on the sides of growing filaments of 0.22 s and a dwell time τ2 (static binding; double exponential fit of all interactions) of 4.99 s.

In turn, “human VASP^1-380aa, unlabeled wild type (untagged hVASP^1-380aa) (from UniProt P50552 1-380) (natural protein)” came in with a Kd in test [2] of 9.2 nM.

By Kd is commonly meant the equilibrium constant for the complex coming apart.
